From paper PMC5218393
Numbering of substitutions follows the chain as printed. Numbers in names are those of the source.

B1: recombinant Lu extracellular domain fused with an Fc-Tag (Lu-Fc), P50895 R175N (protein)
chain: EVRLSVPPLVEVMRGKSVILDCTPTGTHDHYMLEWFLTDRSGARPRLASAEMQGSELQVTMHDTRGRSPPYQLDSQGRLVLAEAQVGDERDYVCVVRAGAAGTAEATARLNVFAKPEATEVSPNKGTLSVMEDSAQEIATCNSNNGNPAPKITWYRNGQRLEVPVEMNPEGYMTSRTVREASGLLSLTSTLYLRLRKDDRDASFHCAAHYSLPEGRHGRLDSPTFHLTLHYPTEHVQFWVGSPSTPAGWVREGDTVQLLCRGDGSPSPEYTLFRLQDEQEEVLNVNLEGNLTLEGVTRGQSGTYGCRVEDYDAADDVQLSKTLELRVAYLDPLELSEGKVLSLPLNSSAVVNCSVHGLPTPALRWTKDSTPLGDGPMLSLSSITFDSNGTYVCEASLPTVPVLSRTQNFTLLVQGSPELKTAEIEPKADGSWREGDEVTLICSARGHPDPKLSWSQLGGSPAEPIPGRQGWVSSSLTLKVTSALSRDGISCEASNPHGNKRHVFHFGTVSPQTSQA
B2: recombinant Lu extracellular domain fused with an Fc-Tag (Lu-Fc), P50895 P254H (protein)
chain: B1 chain with N144R, P223H
B3: recombinant Lu extracellular domain fused with an Fc-Tag (Lu-Fc), P50895 A149D (protein)
chain: B1 chain with A118D, N144R
B4: mouse Lu-Fc (MsLu-Fc), Q9R069 D142A; N168R; H247P (protein)
chain: ELHVSVPPRVEVMRGEQVALDCTPREHPEHYVLEWFLVDGTGARHRLASVEPQGSEFLGTVHSLGRVPPYEVDSRGRLVIAKVQVGDGRDYVCVVKAGAAGTSEATSSVRVFATPEATEVSPNKGTLSVMDQFAQEIATCSSRNGNPVPRITWYRNGQRLEVPMEVNQKGYITIRTVREASGLYSLTSTLYLRLHKDDRDANFHCAAHYDLPSGQHGRLDSPTFRLTLHYPTEHVEFWVGSPSTTEGWVREGDAVQLLCQGDGSPSPEYSFFRQQGTQEEQLNVNLKGNLTLERVHRNQSGIYGCRVEDYDADEEVQLVKKLKLHVAYLDPLELSVPEELFVFLNSSSTVVNCSARGLPTPTVRWTKDSVTLADGPMLSLQSVTFDSAGTYTCEASTPTVPLLSRTQSFQLIVQGAPELKPNEIMPKSGNSWTEGDEVMLTCSARGFPEPKLTWSQRGDTPAEPPFEGRGWKSSSLMVKVTSALSREGVSCEASNIHGKKGHVFHFGSVAPQTAQA
B5: recombinant Lu extracellular domain fused with an Fc-Tag (Lu-Fc), P50895 H257R (protein)
chain: B1 chain with N144R, H226R
B6: recombinant Lu extracellular domain fused with an Fc-Tag (Lu-Fc), P50895 S242D (protein)
chain: B1 chain with N144R, S211D
B7: recombinant Lu extracellular domain fused with an Fc-Tag (Lu-Fc), P50895 R247Q (protein)
chain: B1 chain with N144R, R216Q
B8: recombinant Lu extracellular domain fused with an Fc-Tag (Lu-Fc), P50895 E245S (protein)
chain: B1 chain with N144R, E214S
B9: mouse Lu-Fc (MsLu-Fc), Q9R069 Q240R (protein)
chain: B4 chain with A117D, R143N, Q215R, P222H

Molecular target: C7 scFv (soluble, purified)
Assay: competition ELISA
Conditions: chain shown with the change; C7 scFv 0.6 μg/ml mixed with the mutant protein; competition format: a low value means the soluble protein binds the scFv; parent: est. 5; read off a plot

C7 scFv (soluble, purified), sequence (chain, as listed by the source, chain 1 of 2): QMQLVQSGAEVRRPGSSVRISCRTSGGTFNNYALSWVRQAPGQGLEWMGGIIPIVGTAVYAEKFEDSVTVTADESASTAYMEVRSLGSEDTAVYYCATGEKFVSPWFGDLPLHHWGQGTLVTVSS
C7 scFv (soluble, purified), sequence (chain, as listed by the source, chain 2 of 2): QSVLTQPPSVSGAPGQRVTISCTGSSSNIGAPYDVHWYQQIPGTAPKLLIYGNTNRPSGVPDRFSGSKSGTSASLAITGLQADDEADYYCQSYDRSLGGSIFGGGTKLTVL

| other: Relative binding (residual antibody binding to coated antigen with the mutant protein as competitor) [%] | Binder |
| --- | --- |
| 4 | B1 |
| 3 | B2 |
| 3 | B3 |

Same assay, conditions: chain shown with the change; C7 scFv 0.6 μg/ml mixed with the mutant protein; competition format: a low value means the soluble protein binds the scFv; parent: est. 110; read off a plot

| other: Relative binding (residual antibody binding to coated antigen with the mutant protein as competitor) [%] | Binder |
| --- | --- |
| 95 | B4 |

Same assay, conditions: chain shown with the change; mutant protein mixed with diluted C7 scFv; wells coated with Lu-Fc; competition format: a low value means the soluble protein binds the scFv; read off a plot

| other: Relative binding (residual antibody binding to coated Lu-Fc with the mutant protein as competitor) [%] | Binder |
| --- | --- |
| 3 | B5 |
| 18 | B6 |
| 87 | B7 |
| 22 | B8 |
| 14 | B9 |
